Molecular target: T1, 人CD20 (Raji细胞表面) (human, UniProt P11836 1-297)
T1 construct: whole, on cells; The target is native on the B lymphoma lines Raji (and Daudi); No recombinant CD20 was used; also called 高表达CD20的Raji细胞
T1 sequence (looked up): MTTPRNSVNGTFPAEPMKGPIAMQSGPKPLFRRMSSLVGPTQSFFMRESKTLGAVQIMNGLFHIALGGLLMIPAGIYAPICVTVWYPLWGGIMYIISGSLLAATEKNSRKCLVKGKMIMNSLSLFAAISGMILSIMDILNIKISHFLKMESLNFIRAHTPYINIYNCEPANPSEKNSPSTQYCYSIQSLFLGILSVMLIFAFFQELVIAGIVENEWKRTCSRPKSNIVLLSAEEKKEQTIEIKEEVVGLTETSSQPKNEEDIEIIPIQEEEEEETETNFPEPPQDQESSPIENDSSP
Assay: in vitro antigen binding assay, flow cytometry on Raji cells

B1: 抗人CD20人源化抗体hu3D9 (hu3D9Hb/hu3D9Lb) (antibody, human IgG1, kappa, V domains shown)
VH: EVQLVESGGGLVQPGGSLRLSCAASGYTFTNYWMQWVRQAPGQGLEWISAIYPGDGDTRYTQKFKGRATLSADKSKNTAYLQMNSLRAEDTAVYYCAREGAYGYDDGMDYWGQGTLVTVSS
VL: DIVLTQSPSSLSASVGDRVTITCRASQSIRNNLHWYQQKPGKAPKLLIKYASQSISGVPSRFSGSGSGTDFTLTISSLQPEDFATYYCQQSNSWPLTFGQGTKVEIKR
notes: Humanised antibody with 12 mouse framework residues kept
binding result: binds
